Where a chain is given by its changes, count along the chain named. Names may count otherwise.
T1: human ASGR1 extracellular domain (ECD) (Homo sapiens, UniProt P07306)
T1 sequence (P07306 62-291 limits assumed): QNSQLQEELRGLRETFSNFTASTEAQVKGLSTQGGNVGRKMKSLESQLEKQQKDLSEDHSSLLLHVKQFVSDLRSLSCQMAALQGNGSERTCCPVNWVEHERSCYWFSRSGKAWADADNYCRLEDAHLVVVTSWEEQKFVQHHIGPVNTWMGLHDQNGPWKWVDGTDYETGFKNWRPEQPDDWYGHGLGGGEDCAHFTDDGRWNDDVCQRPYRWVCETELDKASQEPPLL

T2: HepG2 cells (which express ASGR1) (Homo sapiens, UniProt P07306)
T2 construct: endogenous in cells; host or cells: HepG2
T2 sequence (P07306 1-291): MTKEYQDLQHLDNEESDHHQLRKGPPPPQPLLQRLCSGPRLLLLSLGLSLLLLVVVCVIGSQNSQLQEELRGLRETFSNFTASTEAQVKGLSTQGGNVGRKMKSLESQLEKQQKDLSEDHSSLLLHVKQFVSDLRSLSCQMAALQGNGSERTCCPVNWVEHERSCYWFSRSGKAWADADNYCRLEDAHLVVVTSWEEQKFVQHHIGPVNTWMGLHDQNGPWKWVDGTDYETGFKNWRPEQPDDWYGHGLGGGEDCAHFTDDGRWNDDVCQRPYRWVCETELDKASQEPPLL

T3: rat ASGR1 (Rattus norvegicus, UniProt P02706)
T3 construct: expressed in transfected cells; host or cells: CHO-S (transient)
T3 sequence (P02706 1-284): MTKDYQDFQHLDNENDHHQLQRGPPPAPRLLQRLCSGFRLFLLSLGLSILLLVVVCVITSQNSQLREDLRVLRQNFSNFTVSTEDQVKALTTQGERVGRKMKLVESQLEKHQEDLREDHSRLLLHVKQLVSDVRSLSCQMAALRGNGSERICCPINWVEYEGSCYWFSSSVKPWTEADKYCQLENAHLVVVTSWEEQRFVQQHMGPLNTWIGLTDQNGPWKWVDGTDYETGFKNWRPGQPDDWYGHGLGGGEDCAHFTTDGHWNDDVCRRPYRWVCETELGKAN

B1: hzL4L-7: "humanized anti-ASGR1 antibodies hzL4L-7 and hzL4L-14 as compared to parent mouse anti-ASGR1 antibody L4L" (antibody, V domains shown)
VH: QVQLQESGPGLVKPSQTLSLTCTVSGYSISSDYAWNWIRQHPGKGLEWIGYISYSGSTRYNPSLKSRVTITRDTSKNQFSLKLSSVTAADTAVYYCARRYRYDEGYGMDYWGQGTTVTVSS
VL: DIQMTQSPSSLSASVGDRVTITCRASENIYSNLAWYQQKPGKAPKLLIYAATNLADGVPSRFSGSGSGTDFTLTISSLQPEDFATYYCQHFWGTPPWTFGGGTKVEIK
B2: hzH8K-1: "humanized anti-ASGR1 antibodies hzH8K-1 and hzH8K-10 as compared to parent mouse anti-ASGR1 antibody H8K" (antibody, V domains shown)
VH: QVQLQESGPGLVKPSQTLSLTCTVSGGSISSDYAWNWIRQHPGKGLEWIGYRSYRGSTSYNPSLKSRVTISVDTSKNQFSLKLSSVTAADTAVYYCARRGYYGSSSHWYFDVWGQGTTVTVSS
VL: DIQMTQSPSSLSASVGDRVTITCRASENIYSYLAWYQQKPGKAPKLLIYNAKTLAEGVPSRFSGSGSGTDFTLTISSLQPEDFATYYCQHHYGTPLTFGGGTKVEIK
B3: hzL4L-5 (antibody, V domains shown)
VH: B1 VH with V68I, T69S
VL: B1 VL
B4: hzL4L-10: "Humanized sequences hzL4L-10 through hzL4L-14 were further modified by adding additional mutations in the light chain CDR2/FR3 junction, namely D56S ..., D56E ... or G57A" (antibody, V domains shown)
VH: B1 VH with S30T, V68I, T69S
VL: B1 VL with D56S
B5: hzL4L-11: "Humanized sequences hzL4L-10 through hzL4L-14 were further modified by adding additional mutations in the light chain CDR2/FR3 junction, namely D56S ..., D56E ... or G57A" (antibody, V domains shown)
VH: B1 VH with S30T, V68I, T69S
VL: B1 VL with D56E
B6: hzL4L-9 (antibody, V domains shown)
VH: B1 VH with V68I, T69S, T71S, R72V
VL: B1 VL
B7: hzL4L-2: humanized L4L clone: "reduction in percent purity ... seen with the chimeric and hzL4L-1, -2 and -6" (antibody, V domains shown)
VH: B1 VH with Y27G, S30T, V68I, T69S
VL: B1 VL
B8: hzL4L-3 (antibody, V domains shown)
VH: B1 VH with S30T, V68I, T69S
VL: B1 VL
B9: hzL4L-4 (antibody, V domains shown)
VH: B1 VH with S30T, T71S, R72V
VL: B1 VL
B10: hzL4L-6: humanized L4L clone: "reduction in percent purity ... seen with the chimeric and hzL4L-1, -2 and -6" (antibody, V domains shown)
VH: B1 VH with S30T
VL: B1 VL
B11: hzL4L-8 (antibody, V domains shown)
VH: B1 VH with S30T, V68I, T69S, T71S, R72V
VL: B1 VL

Biological target: T1, human ASGR1 extracellular domain (ECD)
Experiment: Effect of calcium on anti-ASGR1 binding and dissociation (OCTET Red 96, Penta-His biosensors)
Design: key to Ca2+ sensitivity during association / Ca2+ sensitivity during dissociation / Ca2+ Sensitivity: N = No; Y = Yes
Conditions: binding to human ASGR1 ECD with or without calcium, OCTET
Method: The ability of anti-human ASGR1 antibodies of this disclosure to bind to human ASGR1 in the presence or absence of calcium in binding buffer was examined. Briefly, ASGR1 antibodies were bound to immobilized human ASGR1 extracellular domain (ECD) at saturating levels and subsequently dissociated under three different conditions as follows: (a) binding and dissociation with buffer containing calcium (PBS+1% BSA+0.2% Tween20+0.9 mM CaCl2), pH 7.4); (b) binding with buffer containing calcium and dissociation with buffer lacking calcium; and (c) binding and dissociation with buffer lacking calcium. Analysis of ASGR1 antibody binding to human ASGR1 ECD was performed using the OCTET® Red 96 instrument and analyzed using the OCTET®Data Analysis Software 9.0 (ForteBio). His-tagged human ASGR1 ECD was immobilized to OCTET® Penta-His biosensors and ASGR1 antibodies were subjected to avidity binding under the conditions described above. Association with the ASGR1 ECD was measured by the rate of and increase in magnitude of signal response at a given antibody concentration. Dissociation from the ASGR1 ECD was measured the rate of loss in signal upon removal of the antibody and further incubation with or without Ca^2+. […] Also tested were humanized antibodies hzH8K-1 and hzL4L-7.
Further analysis of the antibodies of this disclosure was to determine whether the presence of calcium was needed for binding (i.e., during association) of the antibodies to human ASGR1 ECD. […]

Molecule	Ca2+ sensitivity during association
B1	N
B2	N

Same assay, conditions: dissociation from human ASGR1 ECD with or without calcium, OCTET

Molecule	Ca2+ sensitivity during dissociation
B1	N
B2	N

Same assay, conditions: overall summary column

Molecule	Ca2+ Sensitivity
B1	N
B2	N

Same assay, conditions: sensitive: difference in binding signal after dissociation with vs without calcium >±10%

Molecule	calcium sensitivity of binding to human ASGR1 ECD
B1	lacking sensitivity to calcium

Biological target: T2, HepG2 cells (which express ASGR1)
Experiment: Guava HepG2 cell binding screen of anti-ASGR1 mAbs
Conditions: humanized L4L clones; Good / Poor
Method: Additionally, hybridomas producing monoclonal antibodies (mAbs) specific for human ASGR1 were prepared from Balb/C mice immunized with ASGR1-AviHis at a service provider using their propriety protocol. Antibody heavy and light chain sequences were obtained, amplified, and cloned. Clone supernatants containing the expressed mAbs were screened for binding to a human ASGR1-IgG1Fc fusion protein, and those with a positive signal as measured by enzyme linked immunosorbent assay (ELISA) were screened for cell binding on HepG2 cells (which express ASGR1). […] The isolated mAbs were further analyzed for the additional characteristics including, for example, titer, low aggregate content following protein A purification, high titer, lack of cross-blocking of ligand GalNac, calcium sensitivity, and cross-reactivity with rat ASGR1 protein.

Molecule	Guava HepG2 Screen
B1	Good
B3	Good
B4	Good
B5	Good
B6	Poor
B7	Good
B8	Good
B9	Poor
B10	Good
B11	Poor

Biological target: T3, rat ASGR1
Experiment: Binding to cell surface expressed rat ASGR1 (transiently transfected CHO-S cells, GUAVA)
Conditions: not given
Method: Anti-human ASGR1 antibodies of this disclosure were examined for cross-reactivity with Cynomolgus macaque and rat ASGR1. Briefly, sequence encoding Cynomolgus macaque or rat ASGR1 was transiently transfected into CHO-S cells. Transfected cells were before performing cell binding assay. A total of about 1.5×10^4 transfected cells/well were added to 96-well V-bottom assay plate, incubated at 37° C., 5% CO2 for 48-72 hours, and then washed with culture medium before adding 100 μl of each ASGR1 antibody at different concentrations starting from 100 nM and 3-fold dilutions to a total of eight wells. The cells with antibody were incubated for 40 minutes at 4° C., then washed three times with 200 μl of fresh culture medium. To each well was added 50 μl PE conjugated goat anti-human Fc (SouthernBiotech) at 1:200 dilution in culture medium and then incubated at 4° C. for 20 minutes. After washing the plate once, the treated cells were resuspended in 200 μl culture medium and then the stained cells were analyzed on GUAVA® using Incyte software.
Anti-human ASGR1 antibodies of this disclosure were examined for cross-reactivity with Cynomolgus macaque and rat ASGR1. […] After washing the plate once, the treated cells were resuspended in 200 μl culture medium and then the stained cells were analyzed on GUAVA® using Incyte software.

Molecule	binding to rat ASGR1
B1	not rat cross-reactive
B2	not rat cross-reactive
